Measurements taken from patent publication US20200131227A1, “POLYPEPTIDE WITH TUMOUR BINDING ACTIVITY” (RUPRECHT-KARLS-UNIVERSITÄT HEIDELBERG, priority 2017, published 2020).
Where a SMILES comes first, the peptide text is derived from it. Bridges are numbered along the chain shown (N, C = ends). The star is where a group is joined. DOTA = O=C(O)CN1CCN(CC(=O)O)CCN(CC(=O)*)CCN(CC(=O)O)CC1

Test: Biodistribution, HNO97 xenografts
Details: Balb/c nude, mouse, iv, 1 MBq, total radioactivity; for tissue to tissue ratio at 0.5 h / tissue to tissue ratio at 1 h / tissue to tissue ratio at 2 h / tissue to tissue ratio at 4 h / tissue to tissue ratio at 6 h: HNO97 xenografts; for tissue to tissue ratio at 0.5 h: 30 min
Experimental: All experiments were conducted in compliance with the German animal protection laws. Eight week old Balb c/c nude mice (Charles River Laboratories) were inoculated subcutaneously at the right shoulder with 5×10^6 HNO97 cells in BD MatriGel™ (BD Bioscience). Xenografts were grown to a tumor diameter of 10-15 mm. For small animal-PET imaging mice were anesthetized using isoflurane inhalation and injected via tail-vein with 50 MBq (2 nmol) of the ^68Ga-labeled DOTA-SFITGv6 peptide (see above) solution in 100 μL PBS. Images were recorded on an Inveon small-animal PET scanner (Siemens) using a 60 min emission scan in list mode and a 10 min transmission scan. Images were taken in 3-dimensional (3D) mode and reconstructed iteratively with a fully 3D algorithm from a 256×256 matrix for viewing transaxial, coronal, and sagittal slices of 0.9 mm thickness. Pixel size was 0.38×0.38×0.79 mm3 and transaxial resolution obtained was 0.9 mm. For blocking experiments 100 μL of a 1 mM aqueous solution of SFITGv6 was pre-administered intraperitoneally 30 min before injection of the radiolabeled peptide. Biodistribution studies were performed after administration of 100 μL of a 20 nM ^177Lu-DOTA-SFITGv6 solution (1 MBq) as an intravenous bolus injection into the tail vein of the mice. After different time points (30 min to 6 hours) three animals, respectively, were sacrificed. Peripheral blood, heart, lung, spleen, liver, kidneys, muscle, brain, intestine, and injection site (tail, after intravenous injection only) were collected and weighted. Tissue-associated radioactivity was measured in a gamma counter (Berthold LB951G) and expressed as percentage of the injected dose per gram tissue (% ID/g).
All animal experiments were conducted in compliance with the German animal protection laws. For in vivo small animal PET imaging and organ distribution studies eight-week old Balb/c nude mice (Charles River Laboratories) were inoculated subcutaneously at the right shoulder with a total of 5×10^6 tumor cells in MatriGel (BD Bioscience). Xenografts were grown until a tumor diameter of 10-15 mm was reached.
3-dimensional (3D) PET images of whole mice were captured by the Siemens Inveon PET scanner as described in Example 1. To assess the biodistribution 100 μL of a 20 nM solution (1 MBq) of ^177Lu-DOTA-SFLAP3 and ^177Lu-DOTA-SFITGv6 were administered as an intravenous bolus injection into the tail vein of mice. For each time point (30 min to 6 hours) we sacrificed a total of three animals, and subsequently collected peripheral blood, heart, lung, spleen, liver, kidneys, muscle, brain, and intestine. Tissues were weighed and respective radioactivity was measured by a gamma counter (LB951G, Berthold Technologies). Values were expressed as percentage of the injected dose radioactivity (MBq) per gram tissue (% ID/g).

[1] = in vivo, Tumor-to-Intestine ratio

For CSCC[C@@H]1NC(=O)[C@H](CC(C)C)NC(=O)[C@H](CC(=O)O)NC(=O)CNC(=O)[C@H](CCCNC(=N)N)NC(=O)[C@H](Cc2ccccc2)NC(=O)[C@H]([C@@H](C)O)NC(=O)[C@@H](NC(=O)[C@H](CCCNC(=N)N)NC(=O)CNC(=O)CN2CCN(CC(=O)O)CCN(CC(=O)O)CCN(CC(=O)O)CC2)CSSC[C@@H](C(=O)N[C@@H](Cc2ccc(O)cc2)C(=O)N2CCC[C@H]2C(=O)N[C@@H](CC(=O)O)C(=O)O)NC(=O)[C@H](CC(C)C)NC(=O)[C@H](CCC(N)=O)NC1=O [^177Lu-DOTA-SFITGv6, metal not drawn] ({DOTA}-GRCTFRGDLMQLCYPD-OH; disulfide 3-13), the tissue to tissue ratio at 0.5 h (in vivo, Tumor-to-Blood ratio) was 6.89 ± 1, the tissue to tissue ratio at 1 h (in vivo, Tumor-to-Blood ratio) was 12.9 ± 0.83 and the tissue to tissue ratio at 2 h (in vivo, Tumor-to-Blood ratio) was 59.5 ± 1.04. The tissue to tissue ratio at 4 h (in vivo, Tumor-to-Blood ratio) was 98.86 ± 0.35, the tissue to tissue ratio at 6 h (in vivo, Tumor-to-Blood ratio) was 99.15 ± 0.51 and the tissue to tissue ratio at 0.5 h (in vivo, Tumor-to-Brain ratio) was 190.9 ± 1. For the same molecule, the tissue to tissue ratio at 1 h (in vivo, Tumor-to-Brain ratio) was 198.6 ± 0.82, the tissue to tissue ratio at 2 h (in vivo, Tumor-to-Brain ratio) was 250.3 ± 1.04 and the tissue to tissue ratio at 4 h (in vivo, Tumor-to-Brain ratio) was 372.6 ± 0.35. The tissue to tissue ratio at 6 h (in vivo, Tumor-to-Brain ratio) was 424.9 ± 0.51, the tissue to tissue ratio at 0.5 h (in vivo, Tumor-to-Heart ratio) was 15.1 ± 1 and the tissue to tissue ratio at 1 h (in vivo, Tumor-to-Heart ratio) was 21.9 ± 0.82. For the same molecule, the tissue to tissue ratio at 2 h (in vivo, Tumor-to-Heart ratio) was 48.8 ± 1.04, the tissue to tissue ratio at 4 h (in vivo, Tumor-to-Heart ratio) was 67.5 ± 0.36 and the tissue to tissue ratio at 6 h (in vivo, Tumor-to-Heart ratio) was 78.99 ± 0.51. It also gave a tissue to tissue ratio at 0.5 h [1] of 4.59 ± 1, a tissue to tissue ratio at 1 h [1] of 3.42 ± 0.83 and a tissue to tissue ratio at 2 h [1] of 9.44 ± 1.05. The tissue to tissue ratio at 4 h [1] was 10.7 ± 0.36, the tissue to tissue ratio at 6 h [1] was 7.82 ± 0.51 and the tissue to tissue ratio at 0.5 h (in vivo, Tumor-to-Kidney ratio) was 0.15 ± 3.73. For the same molecule, the tissue to tissue ratio at 1 h (in vivo, Tumor-to-Kidney ratio) was 0.12 ± 2.21, the tissue to tissue ratio at 2 h (in vivo, Tumor-to-Kidney ratio) was 0.1 ± 3.11 and the tissue to tissue ratio at 4 h (in vivo, Tumor-to-Kidney ratio) was 0.07 ± 2.69. It also gave a tissue to tissue ratio at 6 h (in vivo, Tumor-to-Kidney ratio) of 0.06 ± 2.58, a tissue to tissue ratio at 0.5 h (in vivo, Tumor-to-Liver ratio) of 20.8 ± 1 and a tissue to tissue ratio at 1 h (in vivo, Tumor-to-Liver ratio) of 21.5 ± 0.82. It also gave a tissue to tissue ratio at 2 h (in vivo, Tumor-to-Liver ratio) of 25.8 ± 1.04, a tissue to tissue ratio at 4 h (in vivo, Tumor-to-Liver ratio) of 32.2 ± 0.36 and a tissue to tissue ratio at 6 h (in vivo, Tumor-to-Liver ratio) of 17.6 ± 0.51. It also gave a tissue to tissue ratio at 0.5 h (in vivo, Tumor-to-Lung ratio) of 2.29 ± 1.14, a tissue to tissue ratio at 1 h (in vivo, Tumor-to-Lung ratio) of 3.81 ± 0.82 and a tissue to tissue ratio at 2 h (in vivo, Tumor-to-Lung ratio) of 9.13 ± 1.05. For the same molecule, the tissue to tissue ratio at 4 h (in vivo, Tumor-to-Lung ratio) was 10.3 ± 0.36, the tissue to tissue ratio at 6 h (in vivo, Tumor-to-Lung ratio) was 9.73 ± 0.51 and the tissue to tissue ratio at 0.5 h (in vivo, Tumor-to-Muscle ratio) was 13.9 ± 1. It also gave a tissue to tissue ratio at 1 h (in vivo, Tumor-to-Muscle ratio) of 16.1 ± 0.83, a tissue to tissue ratio at 2 h (in vivo, Tumor-to-Muscle ratio) of 22.7 ± 1.04 and a tissue to tissue ratio at 4 h (in vivo, Tumor-to-Muscle ratio) of 32.3 ± 0.36. It also gave a tissue to tissue ratio at 6 h (in vivo, Tumor-to-Muscle ratio) of 21.9 ± 0.51, a tissue to tissue ratio at 0.5 h (in vivo, Tumor-to-Spleen ratio) of 21.1 ± 1 and a tissue to tissue ratio at 1 h (in vivo, Tumor-to-Spleen ratio) of 27.4 ± 0.82. The tissue to tissue ratio at 2 h (in vivo, Tumor-to-Spleen ratio) was 38.4 ± 1.04, the tissue to tissue ratio at 4 h (in vivo, Tumor-to-Spleen ratio) was 51.78 ± 0.36 and the tissue to tissue ratio at 6 h (in vivo, Tumor-to-Spleen ratio) was 35.4 ± 0.51. For the same molecule, the tissue uptake (in vivo, uptake in the kidneys, hardly any clearance) was roughly 42 %ID/g, the tissue uptake at 0.5 h was 6.22 ± 1 %ID/g and the tissue uptake at 6 h was 2.43 ± 0.51 %ID/g.
